Patent publication US8993719B2, “Methods and compositions related to mutant Kunitz domain I of TFPI-2” (The Regents of the University of California, priority 2005, dated 2015)
Values joined by “and” are separate entries in the source; they are usually repeats but may differ in a detail not shown here. Equal values may be shown once. “Also recorded” adds a separate entry of the source.

Legend:
Human plasmin [1] = molecular target: T1, Human plasmin (human, UniProt P00747 97-810, limits assumed); assay: plasmin inhibition assay, residual amidolytic activity on S-2251
T1 construct: Bought enzyme
T1 sequence (P00747 97-810 limits assumed): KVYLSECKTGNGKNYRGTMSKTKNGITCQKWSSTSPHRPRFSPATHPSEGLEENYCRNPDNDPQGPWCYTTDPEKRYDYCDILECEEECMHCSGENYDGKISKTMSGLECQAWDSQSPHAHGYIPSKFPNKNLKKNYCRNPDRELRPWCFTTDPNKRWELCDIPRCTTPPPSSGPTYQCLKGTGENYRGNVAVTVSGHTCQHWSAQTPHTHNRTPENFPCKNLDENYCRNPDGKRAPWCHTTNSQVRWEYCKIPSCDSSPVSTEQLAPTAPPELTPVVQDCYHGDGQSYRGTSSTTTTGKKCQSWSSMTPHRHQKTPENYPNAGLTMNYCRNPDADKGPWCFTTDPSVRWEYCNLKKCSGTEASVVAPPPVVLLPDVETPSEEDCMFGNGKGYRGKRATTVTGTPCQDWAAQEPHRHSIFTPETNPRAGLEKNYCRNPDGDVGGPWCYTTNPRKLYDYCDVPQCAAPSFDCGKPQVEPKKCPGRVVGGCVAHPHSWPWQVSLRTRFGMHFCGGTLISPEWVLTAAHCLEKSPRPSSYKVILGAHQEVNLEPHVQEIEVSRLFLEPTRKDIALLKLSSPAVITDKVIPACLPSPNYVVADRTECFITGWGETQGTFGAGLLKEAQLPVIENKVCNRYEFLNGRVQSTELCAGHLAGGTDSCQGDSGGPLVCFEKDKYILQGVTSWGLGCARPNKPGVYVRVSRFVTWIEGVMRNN
Description: (§1) Plasmin Inhibition Assays. […] The chromogenic substrate S-2251 was then added, and residual amidolytic activity was measured in a Molecular Devices UVmax kinetic microplate reader at different end points (0.5 and 1 hr) and S2251 (0.5 and 1 mM) concentrations. Plasmin inhibitory data were analyzed according to the quadratic binding expression.
In control experiments, it was first studied if there was any substrate-induced displacement of bound inhibitor by increasing substrate concentrations.

[2] = tested on: intrinsic pathway of blood coagulation; assay: aPTT (activated partial thromboplastin time) of normal plasma; assay type: biochemical; settings: normal human plasma, 5 min at 37° C., FIG. 5
Description: Seventy-five microliter of 25 mM CaCl2 prewarmed to 37° C. was then added and the time needed to form the clot through the intrinsic pathway of blood coagulation was noted.
A common procedure to test inhibition of clotting is to examine the aPTT (activated partial thromboplastin time) of normal plasma. In this test, surface activator plus phospholipid was mixed with normal plasma in equal amounts (75 microliter). […] Seventy-five microliter of 25 mM CaCl2 prewarmed to 37° C. was then added and the time needed to form the clot was noted.
In the aPTT system, coagulation is initiated by the activation of factor XII to Factor XIIa by contact phase involving the kallikrein system. Factor XIIa then activates factor XI to factor XIa in the coagulation cascade.

kallikrein = kallikrein (Homo sapiens, UniProt P03952); settings: Petersen et al 1996; cited from earlier work
Chain of kallikrein (P03952 391-638 limits assumed): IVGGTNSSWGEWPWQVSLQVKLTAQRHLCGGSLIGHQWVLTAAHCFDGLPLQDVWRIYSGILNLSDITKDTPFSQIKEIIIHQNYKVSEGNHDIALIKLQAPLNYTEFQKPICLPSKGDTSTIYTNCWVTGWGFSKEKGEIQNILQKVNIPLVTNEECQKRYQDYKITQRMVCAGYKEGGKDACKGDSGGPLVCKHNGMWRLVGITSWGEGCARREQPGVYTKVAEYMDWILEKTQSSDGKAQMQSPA
Chain of kallikrein (P03952 20-390 partner limits assumed): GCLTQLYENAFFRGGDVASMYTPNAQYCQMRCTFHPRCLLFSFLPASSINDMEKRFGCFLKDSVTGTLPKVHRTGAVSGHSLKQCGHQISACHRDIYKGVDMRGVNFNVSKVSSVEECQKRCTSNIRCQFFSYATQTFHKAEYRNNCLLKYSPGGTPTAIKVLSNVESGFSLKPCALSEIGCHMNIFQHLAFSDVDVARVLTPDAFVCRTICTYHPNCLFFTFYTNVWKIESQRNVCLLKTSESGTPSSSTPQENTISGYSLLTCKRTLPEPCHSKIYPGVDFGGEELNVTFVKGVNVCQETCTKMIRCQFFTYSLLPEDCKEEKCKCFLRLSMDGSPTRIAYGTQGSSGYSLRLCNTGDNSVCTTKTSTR

Human plasmin [3] = molecular target: T2, Human plasmin (Homo sapiens, UniProt P00747); assay: Plasmin inhibition assay (residual amidolytic activity, chromogenic substrate S-2251); assay type: biochemical; settings: for fold stronger binding to plasmin than WT KD1: relative to WT KD1
T2 construct: purchased Enzyme research laborotories
T2 sequence (P00747 581-810 limits assumed): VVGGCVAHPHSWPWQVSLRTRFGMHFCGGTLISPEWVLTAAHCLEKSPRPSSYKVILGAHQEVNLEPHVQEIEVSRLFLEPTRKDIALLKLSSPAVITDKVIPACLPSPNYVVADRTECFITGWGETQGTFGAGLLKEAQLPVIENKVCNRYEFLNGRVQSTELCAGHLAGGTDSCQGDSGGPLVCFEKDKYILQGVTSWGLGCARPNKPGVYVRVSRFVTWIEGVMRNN
T2 sequence (P00747 97-580 partner limits assumed): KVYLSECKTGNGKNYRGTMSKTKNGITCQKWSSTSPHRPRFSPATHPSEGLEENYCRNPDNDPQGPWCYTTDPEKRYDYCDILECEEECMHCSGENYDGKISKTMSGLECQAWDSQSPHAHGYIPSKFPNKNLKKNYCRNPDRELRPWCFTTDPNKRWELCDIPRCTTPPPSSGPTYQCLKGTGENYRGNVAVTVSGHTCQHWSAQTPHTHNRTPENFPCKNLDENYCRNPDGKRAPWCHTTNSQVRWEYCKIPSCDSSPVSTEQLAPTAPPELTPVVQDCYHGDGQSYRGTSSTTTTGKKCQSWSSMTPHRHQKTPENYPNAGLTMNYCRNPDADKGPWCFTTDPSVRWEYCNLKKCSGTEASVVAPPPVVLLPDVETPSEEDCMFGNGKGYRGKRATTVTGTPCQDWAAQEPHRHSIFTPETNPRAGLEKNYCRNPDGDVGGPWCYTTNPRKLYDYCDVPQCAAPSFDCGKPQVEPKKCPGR
Text: Materials and methods: The chromogenic substrates H-D-Val-Leu-Lys-p-nitroanilide (S-2251) was purchased from DiaPharma Group Inc. (West Chester, Ohio). Human plasmin was purchased from Enzyme research laborotories. Bovine aprotinin (BPTI) was used from Zymogenetics. Escherichia coli strain BL21(DE3)pLys and pET28a expression vector were products of Novagen Inc. (Madison, Wis.). The QuikChange® site-directed mutagenesis kit was obtained from Stratagene (La Jolla, Calif.).
as §1

Mouse plasmin [4] = molecular target: Mouse plasmin (mouse, UniProt P20918 98-812, limits assumed); assay: mouse plasmin inhibition assay
Chain of Mouse plasmin (P20918 98-812 limits assumed): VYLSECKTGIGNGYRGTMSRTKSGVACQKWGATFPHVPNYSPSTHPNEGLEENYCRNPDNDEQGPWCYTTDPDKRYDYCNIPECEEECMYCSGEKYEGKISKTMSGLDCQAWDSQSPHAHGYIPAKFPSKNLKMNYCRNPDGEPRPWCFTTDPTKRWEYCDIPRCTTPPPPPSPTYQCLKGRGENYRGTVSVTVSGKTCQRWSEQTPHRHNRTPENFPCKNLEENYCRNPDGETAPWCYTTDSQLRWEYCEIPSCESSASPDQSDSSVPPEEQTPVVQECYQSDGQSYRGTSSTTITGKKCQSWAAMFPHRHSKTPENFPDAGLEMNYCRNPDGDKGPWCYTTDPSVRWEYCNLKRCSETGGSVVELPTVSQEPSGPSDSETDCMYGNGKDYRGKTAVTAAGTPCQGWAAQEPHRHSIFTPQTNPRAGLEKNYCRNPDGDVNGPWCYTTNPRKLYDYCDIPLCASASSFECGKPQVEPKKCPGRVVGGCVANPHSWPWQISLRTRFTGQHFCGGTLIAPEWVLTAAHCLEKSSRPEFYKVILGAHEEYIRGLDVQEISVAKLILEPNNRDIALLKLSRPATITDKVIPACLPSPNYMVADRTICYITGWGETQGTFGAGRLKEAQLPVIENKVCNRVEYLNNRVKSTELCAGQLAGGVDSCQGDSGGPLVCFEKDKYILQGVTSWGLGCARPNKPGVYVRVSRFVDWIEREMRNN

Human plasmin [5] = molecular target: T1, Human plasmin; assay: plasmin inhibition assay, residual amidolytic activity on S-2251, quadratic binding fit
Description: as §1
(§2) The incubation time was 1 hr at 37° C. and substrate concentration was 1 mM for the remaining activity measurements.

factor XIa = factor XIa (Homo sapiens, UniProt P03951); settings: Petersen et al 1996; cited from earlier work
Chain of factor XIa (P03951 388-625 limits assumed): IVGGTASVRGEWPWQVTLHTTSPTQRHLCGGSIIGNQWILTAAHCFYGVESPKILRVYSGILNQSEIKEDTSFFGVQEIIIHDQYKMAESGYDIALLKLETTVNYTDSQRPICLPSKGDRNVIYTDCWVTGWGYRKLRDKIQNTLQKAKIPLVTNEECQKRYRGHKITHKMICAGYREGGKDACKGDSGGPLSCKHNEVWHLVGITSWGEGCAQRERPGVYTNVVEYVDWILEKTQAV
Chain of factor XIa (P03951 19-387 partner limits assumed): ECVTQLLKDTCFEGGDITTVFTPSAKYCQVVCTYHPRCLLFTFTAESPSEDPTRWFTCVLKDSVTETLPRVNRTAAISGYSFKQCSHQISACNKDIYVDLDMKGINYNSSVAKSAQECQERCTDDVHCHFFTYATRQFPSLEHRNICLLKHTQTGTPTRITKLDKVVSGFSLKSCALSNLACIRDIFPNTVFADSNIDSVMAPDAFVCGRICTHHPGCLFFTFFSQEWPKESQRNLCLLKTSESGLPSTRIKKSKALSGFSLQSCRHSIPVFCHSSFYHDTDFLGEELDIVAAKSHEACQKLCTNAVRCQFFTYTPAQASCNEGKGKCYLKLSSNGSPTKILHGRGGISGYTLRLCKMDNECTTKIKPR

mouse plasmin [6] = molecular target: mouse plasmin (Mus musculus, UniProt P20918); assay: Mouse plasmin inhibition; assay type: biochemical; settings: 1 μM inhibitor; FIG. 6
Chain of mouse plasmin (P20918 582-812 limits assumed): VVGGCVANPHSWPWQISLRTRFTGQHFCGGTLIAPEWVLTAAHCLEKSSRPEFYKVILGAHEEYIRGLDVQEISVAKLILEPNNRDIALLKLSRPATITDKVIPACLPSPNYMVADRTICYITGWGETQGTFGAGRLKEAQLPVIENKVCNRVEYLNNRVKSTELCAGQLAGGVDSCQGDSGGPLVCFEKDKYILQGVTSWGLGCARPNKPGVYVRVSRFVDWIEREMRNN
Chain of mouse plasmin (P20918 98-581 partner limits assumed): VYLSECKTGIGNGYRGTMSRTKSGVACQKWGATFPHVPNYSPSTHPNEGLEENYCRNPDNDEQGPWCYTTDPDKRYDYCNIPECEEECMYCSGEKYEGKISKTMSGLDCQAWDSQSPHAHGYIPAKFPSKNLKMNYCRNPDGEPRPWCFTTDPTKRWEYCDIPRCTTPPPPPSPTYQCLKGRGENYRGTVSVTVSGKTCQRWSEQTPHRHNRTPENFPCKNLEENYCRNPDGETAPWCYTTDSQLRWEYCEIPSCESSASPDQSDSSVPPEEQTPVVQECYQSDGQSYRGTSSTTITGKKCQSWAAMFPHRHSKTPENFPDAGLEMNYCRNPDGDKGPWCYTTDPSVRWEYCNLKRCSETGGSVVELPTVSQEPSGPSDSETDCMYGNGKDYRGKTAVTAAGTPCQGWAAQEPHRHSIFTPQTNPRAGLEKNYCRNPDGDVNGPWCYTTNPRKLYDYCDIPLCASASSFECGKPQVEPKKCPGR
Text: Both WT KD1 and L26R inhibited mouse plasmin effectively. […] Since both the wild-type and the mutant inhibit mouse plasmin, one can use the mutant to show efficacy in vivo in an animal model of bleeding.

[7] = tested on: mouse tail vein bleeding model; assay: Mouse tail vein bleeding model; assay type: in vivo; settings: intravenously, about 100 microgram/mouse, compared to saline control
Text: A mouse tail vein bleeding model has been described to study the efficacy of a snake plasmin inhibitor (Masci et al. Blood Coagulation and Fibrinolysis 2000, Vol 11, pages 385-393). […] The doses of the plasmin inhibitors used in these experiments were similar to that used during human CPB (cardiopulmonary bypass) surgery, adjusted to the mouse weight. The Animal Ethics Committee of UCLA approved all mice experiments and the dose used in human surgery adjusted to mouse weight was a realistic basis for these initial studies. The serum BUN/Creatinine levels were normal after two days and seven days following administration of the drug.

Human plasmin [8] = molecular target: T1, Human plasmin; assay: plasmin inhibition assay, 1 hr at 37° C., 1 mM S-2251
Description: as §1, §2

Row | Molecule | Ki (Human plasmin [1]) [nM] | inhibition of intrinsic pathway of coagulation (prolongation of aPTT clotting time) ([2]; listed as KD1 WT) | inhibition of kallikrein (kallikrein) | substrate-induced displacement of bound inhibitor (Human plasmin [3]; increasing S-2251 concentration (0.5 and 1 mM)) | Kd (Mouse plasmin [4]) [nM] | Kd (Human plasmin [5]) [nM] | inhibition of factor XIa (factor XIa) | inhibition of mouse plasmin at 1 μM (mouse plasmin [6]) | reduction in blood loss [7] | fold stronger binding to plasmin than WT KD1 (Human plasmin [3]) | Kd (Human plasmin [8]) | fold difference of Kd against WT KD1 (Human plasmin [8]) [fold] | fold stronger binding than WT KD1 (Human plasmin [1]) [fold] | inhibition of intrinsic pathway of coagulation (prolongation of aPTT clotting time) [2] | inhibition of intrinsic pathway of coagulation (prolongation of aPTT clotting time) ([2]; listed as L26R KD1) | fold stronger binding to plasmin than WT KD1 (Human plasmin [3]; listed as L17R) | fold stronger binding than the R15K mutant (Human plasmin [1]) [fold]
1 | Wild type first Kunitz-type proteinase inhibitor domain of human TFPI-2 (KD1) (other, also called WTKD1; WT KD1) DAAQEPTGNNAEICLLPLDYGPCRALLLRYYYDRYTQSCRQFLYGGCEGNANNFYTWEACDDACWRIEKVPKV | 22 | prolongation of the aPTT; also recorded: inhibit the intrinsic pathway of coagulation | inhibits both kallikrein and factor XIa | apparently no displacement of bound inhibitor; also recorded: not any significant substrate induced displacement of inhibitor | ~80 | 22 | inhibits both kallikrein and factor XIa | Complete inhibition | 67-70% | – | – | – | – | – | – | – | –
2 | KD1 R15K mutant (R24K in KD1 numbering) (other, Made from KD1 by site-directed mutagenesis, with the His tag removed; also called R24K mutant) DAAQEPTGNNAEICLLPLDYGPCKALLLRYYYDRYTQSCRQFLYGGCEGNANNFYTWEACDDACWRIEKVPKV | 10 | – | – | – | – | – | – | – | – | two-fold different | 9 to 11 nM and 10 nM | 2 | – | – | – | – | –
3 | KD1 L17R mutant (L26R in KD1 numbering) (other, The His tag was removed; also called KD1 L26R; L26R KD1) DAAQEPTGNNAEICLLPLDYGPCRARLLRYYYDRYTQSCRQFLYGGCEGNANNFYTWEACDDACWRIEKVPKV | 6 | – | – | – | ~80 | – | – | Complete inhibition | 67-70% | – | – | – | ~4 | no inhibition (prolongation) of aPTT; also recorded: loses activity as an anticoagulant; also recorded: ineffective | no effect on clotting | approximately 4 fold | –
4 | KD1 R15K/L17R double mutant (R24K/L26R in KD1 numbering) (other, Made from KD1 by site-directed mutagenesis, with the His tag removed) DAAQEPTGNNAEICLLPLDYGPCKARLLRYYYDRYTQSCRQFLYGGCEGNANNFYTWEACDDACWRIEKVPKV | 3 | – | – | – | – | – | – | – | – | – | 3 nM | – | 7 | – | – | – | ~2
